Laboratory results: patent US11406709B2, “Therapeutic and research application of PDCL3” (TRUSTEES OF BOSTON UNIVERSITY, priority 2014, dated 2022)

Experiments:
PDCL3 with VEGFR-2 = assay: Brefeldin A treatment, co-immunoprecipitation of PDCL3 with VEGFR-2; type: cell-based; conditions: HEK-293 cells
Procedure: FIG. 7A. Cells expressing VEGFR-2 alone or together were subjected cell surface biotinylation. Non-biotinylated and biotinylated fractions were immunoprecipitated with anti-VEGFR-2 antibody and blotted for PDCL3 using anti-c-Myc antibody. Non-biotinylated and biotinylated fractions also were blotted for VEGFR-2 and PARP as a control. FIG. 7B. HEK-293 cells were co-transfected with Myc-tagged PDCL3 and VEGFR-2 and after 48 hours they were treated with BFA or control vehicle. Cells were lysed and whole cell lysates were either blotted for VEGFR-2 or were subjected co-immunoprecipitation using anti-c-Myc antibody followed by immunoblotting with anti-VEGFR-2. FIG. 7C. HEK-293 cells were co-transfected with Myc-tagged PDCL3 and VEGFR-2 and after 48 hours cells were fixed and subjected to IF staining as described in Materials and Method section. Cells were stained with anti-PDCL3, anti-c-myc antibodies (FIGS. 7C-7D) or endoplasmic reticulum specific dye FIG. 7E.

PDCL3 and VEGFR-2 = assay: Chemical hypoxia, expression of PDCL3 and VEGFR-2; type: cell-based
From the text: To test whether, increased expression of VEGFR-2 in response to hypoxia is linked to induction of PDCL3 expression, we silenced expression of PDCL3 by siRNA and analyzed measured VEGFR-2 levels.

zebrafish embryos = assay: Zebrafish angiogenesis assay; type: in vivo, zebrafish (Danio rerio); conditions: microinjection into embryos, 28 hpf
Procedure: The vectors were linearized with Not I restriction enzyme, treated with Proteinase K (SIGMA) and extracted with phenol. Linearized plasmid DNA (1 μg/μl) in RNAse-free water was used for in vitro capped mRNA synthesis using the MMESSAGE MMACHINE® SP6 kit (AMBION) according to manufacturer instructions and RNA subsequently was used to inject into zebrafish embryos.
Fli-eGFP-transgenic adult male and female zebrafish (Danio rerio) were housed in […] light-dark cycle at a temperature of (26.5° C.) and a pH of (7.0-7.4) in a controlled multi-tank recirculating water system (Aquatic Habitats, Apopka, Fla.). Fish were fed twice daily with live brine shrimp (Brine Shrimp Direct, Ogden, Utah) and flake food (TetraMin; Tetra, Blacksburg, Va.). A glass capillary needle attached to a Femtojet injector (EPPENDORF) was used for injecting RNA (10 or 5 ng/μl in approximately 10 pl) into 1- or 2-cell-stage embryos. The embryos were grown at 28° C. for 3 days. The embryos were examined after 28 or 50 hpf using Zeiss immunofluorescence microscope. The images of fish under same setting were obtained for 10 fish per group at every experiment and analyzed for the length of the tail vessels using IMAGE-PRO® software and for the tail vessel plexus fluorescent intensity using Image J software.

VEGFR-2 [1] = assay: Co-immunoprecipitation with VEGFR-2 and VEGFR-2 ubiquitination blot; type: cell-based; conditions: HEK-293 cells co-expressing VEGFR-2
Procedure: (§1) FIG. 6A. Cell lysates from HEK-293 cells co-expressing PDCL3 with VEGFR-2 or HA-PDCL3 with VEGFR-2 were immunoprecipitated with VEGFR-2 and immunoblotted for PDCL3 using anti-Myc antibody. Whole cell lysates was also blotted for VEGFR-2, PDCL3 and HSp70 as a loading control. Ubiquitination of VEGFR-2 was determined by immunoprecipitation with anti-VEGFR-2 followed by immunoblotting with anti-ubiquitin antibody. FIG. 6B. The graph is quantification of the ubiquitination blot of VEGFR-2. FIG. 6C. Angiogenic potential of wild-type and HA-tagged methionine mutant PDCL3 expressed in PAE cells is shown. PAE cells engineered to express VEGFR-2 alone, VEGFR-2 with wild-type PDCL3 or VEGFR-2 with HA-tagged methionine mutant PDCL3. Cells were plated on matrigel and pictures were taken after 12 hours. Image J was used to quantify tube formation. Graph is representative of three independent experiments.
Plasmids and siRNA: Human Phosducin like protein 3 cDNA (PDCL3 also called PHLP2A) (Clone #3344703, accession #BC001021) was purchased from OPEN BIOSYSTEMS and was cloned into expression vectors, pcDNA3.1/Myc-His(−) or retroviral pMSCV. Mutant PDCL3 was generated by removing the first methionine and adding HA tag and similarly was cloned into pcDNA3.1 and pMSCV vectors. […]

PAE cells = assay: Capillary tube formation on matrigel; type: cell-based, porcine; conditions: over-expression with VEGFR-2 in endothelial cells, 12 hours
Procedure: as §1

VEGFR-2 [2] = assay: Protein aggregation assay (PSA dye), thermo-induced aggregation; type: biochemical; conditions: immunoprecipitated VEGFR-2, 45° C.
Procedure: Aggregation of VEGFR-2 determined using PSA kit purchased from PROFOLDIN, Inc (Hudson, Mass.) and assay was performed according to manufacturer's guideline. […] When the PSA dye binds to the aggregate, it is immobilized and slows down the rotational movement and inducing the dye to fluoresce. In brief, VEGFR-2 immunoprecipitated from HEK-293 cells and eluded from the protein-sepharose beads. The eluded VEGFR-2 protein was incubated in the 45° C. in the presence or absence of purified GST-PDCL3 for various time points. The Fluorescence intensity was measured at […].

VEGFR-2 [3] = assay: Cycloheximide-chase / VEGF-induced downregulation of VEGFR-2; type: cell-based
Procedure: FIG. 2A. Illustrated is the schematic of treatment of cells with cycloheximide (CHX) and VEGF. PAE cells co-expressing VEGFR-2 with empty vector (pMSCV) or PDCL3 were incubated with CHX for 90 minutes followed by stimulation with VEGF for indicated times. Whole cell lysates was blotted for VEGFR-2 and loading control protein, PLCγ1. FIG. 2B. Shown are the quantification of the half-life of mature VEGFR-2 and pre-mature VEGFR-2 based on the VEGFR-2 blot from the panel FIG. 2A. FIGS. 2C-2D. PAE cells co-expressing VEGFR-2 with empty vector (pMSCV) or PDCL3 were stimulated with VEGF for indicated times and whole cell lysates were processed as panel FIG. 2A.
PAE cells expressing VEGFR-2 alone or together with PDCL3 were serum-starved for overnight followed by incubation of cells with serum-free DMEM medium containing cycloheximide (20 μg/ml, 90 min). Cells then were stimulated with VEGF for various times to downregulate cell surface VEGFR-2. Cells were lysed and whole cell lysates was blotted for VEGFR-2 using anti-VEGFR-2 antibody. For measuring half-life of PDCL3 and HA-tagged mutant PDCL3, cells were incubated with serum-free DMEM medium containing cycloheximide (20 μg/ml) for indicated times and cells were lysed and whole cell lysates was blotted for PDCL3.

[4] = system: VEGFR-1, VEGFR-2 and CSF-1R; assay: Receptor expression in HEK-293 cells expressing PDCL3; type: cell-based
Procedure: FIG. 1A. HEK-293 cells expressing VEGFR-2 were transfected with different concentrations of C-terminus Myc-tagged PDCL3. After 48 hours cells were lysed and whole cell lysates (WCL) were blotted for VEGFR-2, PDCL3 and Hsp70 for loading control. Quantification of premature (newly synthesized and partially glycosylated VEGFR-2 corresponding to lower molecular weight) and mature (fully glycosylated) forms of VEGFR-2 is shown. Mean results of three independent experiments are shown. *P=0.04 and […]. FIG. 1B. Human umbilical vein endothelial cells (HUVECs) were transfected with control siRNA or PDCL3-siRNA. After 48 hours cells serum-starved for overnight followed by stimulation with VEGF for 10 minutes. Cells were lysed and whole cell lysates were blotted for phospho-Y1054-VEGFR-2, total VEGFR-2, PDCL3 and Hsp70 for loading control. FIG. 1C. Thermo-induced aggregation of VEGFR-2 was measured using PSA dye as described in the materials and method section. FIG. 1D. In vitro transcription/translation of VEGFR-2 in the absence or presence of exogenous recombinant PDCL3 was performed as described in the materials and method section and schematic of the procedure is shown. FIG. 1E. In vitro translated VEGFR-2 protein in the absence or presence of exogenous recombinant PDCL3 was blotted for VEGFR-2. FIG. 1F. […]

`C[C@H]1CCC/C=C/[C@@H]2C[C@H](O)C[C@H]2[C@H](O)/C=C/C(=O)O1` [Brefeldin A] was tested, and the “binding of PDCL3 with VEGFR-2” value (PDCL3 with VEGFR-2) was “did not inhibit the binding of PDCL3 with VEGFR-2”.

With `[Cl][Co][Cl]` [cobalt chloride] the “expression of PDCL3 and VEGFR-2” value (PDCL3 and VEGFR-2) was “similarly increased expression of PDCL3 and VEGFR-2”.

“pdcl3 morpholino: PDCL3 morpholino for zebrafish, 5′CGGTGTCTGCGTTTGGGTCCTGCAT3′ (SEQ ID NO: 10), Gene Tools (all phosphorodiamidate morpholino (PMO))” was tested, and the “angiogenesis (intersegmental vessel formation)” value (zebrafish embryos) was “significantly inhibited angiogenesis”.

B1: acetylation resistant HA-tagged PDCL3: Mutant PDCL3 generated by removing the first methionine and adding HA tag (protein)
chain: QDPNADTEWNDILRKKGILPPKESLKELEEEAEEEQRILQQSVVKTYEDMTLEELEDHEDEFNEEDERAIEMYRRRRLAEWKATKLKNKFGEVLEISGKDYVQEVTKAGEGLWVILHLYKQGIPLCALINQHLSGLARKFPDVKFIKAISTTCIPNYPDRNLPTIFVYLEGDIKAQFIGPLVFGGMNLTRDELEWKLSESGAIMTDLEENPKKPIEDVLLSSVRRSVLMKRDSDSEGD
modifications: left off: small tags and cut ends
In the case of B1, the “interaction with VEGFR-2” value (VEGFR-2 [1]) is reported as “interacted strongly with VEGFR-2 compared to wild-type PDCL3”, the “ubiquitination of VEGFR-2” value (VEGFR-2 [1]) is reported as “prevented VEGFR-2 from ubiquitination” and the angiogenesis/capillary tube formation (PAE cells) is reported as “more robust”.

B2: PDCL3: 239-amino acid human phosducin-like protein 3, SEQ ID NO: 1; expressed from cDNA in cells (protein, listed as Homo sapiens)
chain: MQDPNADTEWNDILRKKGILPPKESLKELEEEAEEEQRILQQSVVKTYEDMTLEELEDHEDEFNEEDERAIEMYRRRRLAEWKATKLKNKFGEVLEISGKDYVQEVTKAGEGLWVILHLYKQGIPLCALINQHLSGLARKFPDVKFIKAISTTCIPNYPDRNLPTIFVYLEGDIKAQFIGPLVFGGMNLTRDELEWKLSESGAIMTDLEENPKKPIEDVLLSSVRRSVLMKRDSDSEGD
modifications: Myc tag in some forms
notes: expressed from cDNA in cells
In the case of B2, the “aggregation of VEGFR-2” value (VEGFR-2 [2]) is reported as “significantly reduced aggregation of VEGFR-2 in a time-dependent manner”, the “half-life of newly made VEGFR-2” value (VEGFR-2 [3]; PAE cells co-expressing VEGFR-2 with PDCL3) is reported as “extends the half-life of newly made VEGFR-2” and the “VEGF-induced downregulation of mature VEGFR-2” value (VEGFR-2 [3]; PAE cells, absence of cycloheximide) is reported as “markedly slower”. For the same molecule, the angiogenesis/capillary tube formation (PAE cells) was “increased angiogenesis/capillary tube formation”, the “expression of VEGFR-1, VEGFR-2 and CSF-1R” value [4] was “markedly increased expression of VEGFR-1, VEGFR-2 and CSF-1R” and the “abundance of premature and mature forms of VEGFR-2” value ([4]; different concentrations of Myc-tagged PDCL3, 48 hours) was “increases the abundance of premature and mature forms of VEGFR-2 in a dose-dependent manner”.
